Assay results as given in publication PMC5399442, “Fatty acid synthase cooperates with protrudin to facilitate membrane outgrowth of cellular protrusions” (Scientific Reports, 2017).
Numbering of substitutions follows the chain as printed.

B1: wild-type protrudin with a C-terminal myc tag (natural protein, human, UniProt Q5T4F4-2 1-404, looked up)
chain: MQTSEREGSGPELSPSVMPEAPLESPPFPTKSPAFDLFNLVLSYKRLEIYLEPLKDAGDGVRYLLRWQMPLCSLLTCLGLNVLFLTLNEGAWYSVGALMISVPALLGYLQEVCRARLPDSELMRRKYHSVRQEDLQRGRLSRPEAVAEVKSFLIQLEAFLSRLCCTCEAAYRVLHWENPVVSSQFYGALLGTVCMLYLLPLCWVLTLLNSTLFLGNVEFFRVVSEYRASLQQRMNPKQEEHAFESPPPPDVGGKDGLMDSTPALTPTEDLTPGSVEEAEEAEPDEEFKDAIEEDDEGAPCPAEDELALQDNGFLSKNEVLRSKVSRLTERLRKRYPTNNFGNCTGCSATFSVLKKRRSCSNCGNSFCSRCCSFKVPKSSMGATAPEAQRETVFVCASCNQTLSK
notes: protrudin (ZFYVE27), human, from cDNA; also called WT-protrudin; protrudin-myc; source: HEK293T, transfected (pcDNA3.1-protrudin-myc), in lysate; not shown: c-Myc, C-terminal, kept
B2: protrudin with DiZPK incorporated at site D134, C-terminal myc tag (natural protein, human, UniProt Q5T4F4-2 1-404, looked up)
chain: B1 chain with D134K
modifications: DiZPK (3-(3-methyl-3H-diazirin-3-yl)-propamino-carbonyl-Nε-L-lysine) at position 134
notes: protrudin (ZFYVE27), human; codon of D134 changed to the amber codon (TAG) and read as DiZPK, a lysine derivative; The new residue is written as K because DiZPK is an Nε-modified lysine; source: HEK293T, transfected with the MbPylRS/MbtRNACUA pair, cultured with DiZPK, in lysate; not shown: c-Myc, C-terminal, kept

Assays:
[1] = biological target: the molecule itself; experiment: SDS-resistant dimer on SDS-PAGE with immunoblot; HEK293T cells expressing WT-protrudin exposed to UV light (365 nm) as control; SDS-PAGE and immunoblot with anti-Myc antibody
[2] = biological target: the molecule itself; experiment: cross-linking; photo-crosslinking by DiZPK in living HEK293T cells, 48 h after transfection, UV 365 nm for 10 min; SDS-PAGE and immunoblot with anti-Myc antibody

Protein | stoichiometry N [1] | stoichiometry N [2]
B1 | 2 | –
B2 | – | 2
